Assay results reported in publication PMC4220969, “Structural basis for the recognition of muramyltripeptide by Helicobacter pylori Csd4, a D,L-carboxypeptidase controlling the helical cell shape” (Acta Crystallographica Section D: Biological Crystallography, 2014).
Where no end group is shown, it is not given here. [ ]: non-standard residue; d: D form. The star is where a group is joined. FITC = O=C1OC2(c3ccc(O)cc3Oc3cc(O)ccc32)c2ccc(NC(=S)*)cc21

Columns and labels:
[1] = target: FITC-labelled dipeptide (FITC-L-Ala-D-Glu); assay: fluorescence polarisation; FITC-labelled dipeptide at 9.2 nM, Csd5 titrated from 17.0 nM to 17.4 µM, 10 mM HEPES pH 7.5, 100 mM sodium chloride
Csd5 = target: T1, Csd5 (Helicobacter pylori, UniProt O25843); assay: fluorescence polarization; format: binding; conditions: labelled compound; 9.2 nM FITC-dipeptide, 10 mM HEPES pH 7.5, 100 mM NaCl
T1 construct: gene HP_1250

[2] = target: T2, Helicobacter pylori Csd4 (HP1075 in strain 26695), recombinant, residues Met22-Val438 (Helicobacter pylori strain 26695, UniProt O25708 22-438); assay: SPR; as a1, EDTA-treated Csd4-immobilised chip retreated with running buffer containing 5 mM calcium chloride; conditions: both partners purified
T2 construct: Csd4 (HP1075) from H. pylori strain 26695, residues Met22-Val438; the N-terminal 19 residues are a predicted signal peptide and are not in the construct; No cleavage of the tag is described; also called D,L-carboxypeptidase; source: E. coli Rosetta2(DE3), purified (HiTrap Chelating HP, HiTrap SP HP, Superdex 200)
T2 sequence (looked up): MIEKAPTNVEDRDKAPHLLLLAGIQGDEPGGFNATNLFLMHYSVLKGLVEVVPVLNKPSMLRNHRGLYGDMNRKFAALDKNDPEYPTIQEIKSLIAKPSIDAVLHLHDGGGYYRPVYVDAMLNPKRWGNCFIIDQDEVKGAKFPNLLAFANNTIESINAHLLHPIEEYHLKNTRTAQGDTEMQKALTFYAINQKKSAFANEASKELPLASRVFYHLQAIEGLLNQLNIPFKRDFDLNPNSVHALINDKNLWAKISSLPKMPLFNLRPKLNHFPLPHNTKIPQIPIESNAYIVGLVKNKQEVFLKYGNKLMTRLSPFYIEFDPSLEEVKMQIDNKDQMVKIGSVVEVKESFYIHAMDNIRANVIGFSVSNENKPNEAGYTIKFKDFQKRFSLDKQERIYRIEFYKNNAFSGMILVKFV

[3] = target: T2, Helicobacter pylori Csd4 (HP1075 in …); assay: SPR; Csd4 immobilised by amine coupling on a carboxymethyl dextran chip, Csd5 as analyte (0.25-2.00 µM), 10 mM HEPES pH 7.5, 100 mM sodium chloride, 25°C; BSA reference subtracted; conditions: both partners purified

Helicobacter pylori Csd5 (HP1250 in strain 26695), N-terminal 40-residue-truncated construct, residues Ser41-Glu192 (from UniProt O25843 41-192) (domain or fragment)
Kd [1]: 1690 nM

{FITC}-Ala-[dE]
Kd (Csd5): ~1690 nM

B1: Helicobacter pylori Csd5 (HP1250 in strain 26695), N-terminal 40-residue-truncated construct, residues Ser41-Glu192 (domain or fragment, Helicobacter pylori strain 26695, UniProt O25843 41-192, looked up)
chain: SAPISPNVEKTETERQNGVLSPKQEEANATTTATEESPTKDTAPPLDTAAQKQETKQEQEKENEPKQDSVPPVQNNQKTPTTPLMGKKPLEYKVAVSGVNVRAFPSTKGKILGLLLKNKSVKVLEIQNDWAEIEFSHETKGYVFLKLLKKAE
notes: Csd5 (HP1250) from H. pylori strain 26695, residues Ser41-Glu192; lacks the predicted transmembrane region (Pro15-Val37); No cleavage of the tag is described; source: E. coli, overexpressed and purified essentially as Csd4 (gel filtration in 10 mM HEPES pH 7.5, 100 mM sodium chloride)
Kd [2]: ~4300 nM
Kd [3]: ~4500 nM
